Biological target: single chain trimer version of HLA-Cw6, normal length
Assay: cell-cell conjugate formation by flow cytometry; PKH26-labelled NKL cells (or KIR2DL1-expressing NKL cells) mixed with equal numbers of PKH67-labelled P815 transfectants, 30 min, fixed with 1% paraformaldehyde; percentage of NKL cells forming conjugates

Substance: KIR2DL1-CFP on NKL cells (from UniProt P43626 22-348) (receptor)
- percent of NKL cells forming conjugates: > 50%

Source: article PMC3001952
